Data as given in US4016042A, “Substrate for the quantitative determination of enzymes” (Pentapharm A.G., priority 1974, dated 1977).

Test system: N=C(N)NCCC[C@H](NC(=O)[C@H](Cc1ccccc1)NC(=O)[C@@H]1CCCN1C(=O)c1ccccc1)C(=O)Nc1ccc([N+](=O)[O-])cc1
Experiment: Km and vmax determination with substrate (Lineweaver-Burk), plasma kallikrein
Format: biochemical
Details: other: plasma kallikrein; substrate concentration varied, enzyme constant; measured at 405 nm
Description: As is evident from equation (2) constants Km and k3 determine the activity of the enzyme substrate for a given enzyme. For determining these constants the following procedure is followed:
The enzyme and the substrate are mixed in a buffer solution, and the reaction is followed spectrophotometrically for 2 to 30 minutes. The concentration of substrate [S] is varied, whereas the enzyme concentration [E] is kept constant. If the extinction (OD) (= optical density) is plotted in a co-ordinate system as a function of time, a curve is obtained the tangent of which (difference in extinction per minute, Δ OD/minute, from which the quantity in μmoles of pNA/min (v) can be calculated) at time zero corresponds to the ideal course of the hydrolysis. By means of this tangent the initial rate of the hydrolysis can be determined.
If 1/v is plotted against 1/[S], a Lineweaver-Burk diagram (cf. "Kurzes Lehrbuch der Biochemie" by P. KARSON, Georg Thieme-Verlag, Stuttgart, 1967, p. 70) is obtained from which vmax and Km can be determined graphically.
Km and k3 = vmax /E were determined with N^α-Bz-Pro-Phe-Arg-pNA^. HCl (i.e. the substrate prepared according to Example 1) for plasma kallikrein, trypsin, plasmin and thrombin.

Chain of plasma kallikrein (Homo sapiens) (chain, as listed by the source): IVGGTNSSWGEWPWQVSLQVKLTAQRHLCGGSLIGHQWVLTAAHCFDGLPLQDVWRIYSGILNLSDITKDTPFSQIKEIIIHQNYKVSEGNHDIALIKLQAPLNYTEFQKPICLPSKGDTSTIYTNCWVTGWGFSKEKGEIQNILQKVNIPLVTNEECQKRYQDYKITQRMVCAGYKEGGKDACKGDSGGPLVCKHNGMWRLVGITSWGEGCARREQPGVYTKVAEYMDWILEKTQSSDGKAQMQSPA

**Q.** With plasma kallikrein (Homo sapiens) as the substance, how does the Km read?
**A.** Its Km is 282 µM.
